Measurements from patent US12286631B2, “Riboswitch modulated gene therapy for retinal diseases” (The Medical College of Wisconsin, Inc., priority 2017, dated 2025).

What was measured:
HEK293T cells [1] = assay: Dynamic range / dose-responsiveness to activating ligand, firefly luciferase constructs; assay type: cell-based; settings: for Response to ligand in cell culture (firefly luminescence) / Dynamic Range: HEK293T cells; for Response to ligand in cell culture (firefly luminescence): dual luciferase assay, tetracycline or theophylline; for Dynamic Range: optimal copy number, 0-100 μM activating ligand; for Dynamic range compared with similar riboswitches known in the art: 0-100 μM respective ligand, with target miRNA sequence
Method: The riboswitches were evaluated in HEK293T cells to determine optimal copy number (largest dynamic range) and dose-responsiveness to its activating ligand using a dual luciferase assay. The ligand used were tetracycline and theophylline.
For determining dynamic range, constructs containing firefly luciferase containing the optimal copy number of the riboswitch were made. HEK293T cells were plated on day 1, and transfected on day 2 with 1 μg of plasmid DNA. Cells were treated with 0-100 μM of the ligand corresponding to the riboswitch and the luminescence was quantified on day 3 using plate reader.
Experiments as described in Example 2A were also carried out using the newly designed Tet-SLIM and Theo-SLIM switches including target miRNA sequence, as depicted in FIGS. 12A and 13A, respectively.

mouse retina = assay: In vivo GFP fluorescence (cSLO) after intravitreal rAAV2 GFP-riboswitch cassette and ligand gavage; parameters: species or system C57Bl/6j mice; settings: delivered to the mouse retina using a rAAV2 vector
Method: Next, the optimal copy number of each riboswitch was cloned into a rAAV GFP reporter cassette and packaged in an AAV2 capsid. Each GFP-riboswitch cassette was injected intravitreally into C57Bl/6j mice in combination with an AAV2 control vector harboring a non-inducible mCherry reporter gene. Four weeks post-injection, mCherry and GFP fluorescence levels were quantified in vivo using a custom ‘Multiline’ confocal scanning laser ophthalmoscope (cSLO). Mice subsequently received a dose of 1000 mg/kg of its activating ligand (tetracycline, theophylline), and fluorescence levels were quantified 2 and 24 hours post-gavage.

HEK293T cells [2] = assay: Optimal copy number of riboswitch, GFP plasmids, fluorescence plate reader; assay type: cell-based; settings: plasmids with 0-4 copies of riboswitch, GFP transgene
Method: The protocol for both assays are outlined in FIGS. 8A and 8B. For determining optimal copy numbers, plasmids containing 0-4 copies of each riboswitch were created with the transgene as green fluorescence protein (GFP) for readout. HEK293T cells were plated in a 12-well plate and on day 2 transfected with 1 μg of each plasmid DNA. On day 3, cells were observed by fluorescent microscopy (excitation 467-498 nm) and fluorescence was quantified using a plate reader (488 nm excitation 520 nm emission).
As depicted in FIG. 9A, L2Bulge18tc riboswitch was one ON-type riboswitch tested. The cells were treated with 0 μM, 25 μM, 50 μM, 75 μM, and 100 µM of tetracycline (ligand), with the fluorescent microscopy results shown in FIG. 9D.
L2Bulge 9 was also tested (using activating ligand Theophylline), and the optimal copy number was determined to be 3.

Molecule	Response to ligand in cell culture (firefly luminescence) (HEK293T cells [1])	Dynamic Range (HEK293T cells [1])	Response to ligand in vivo (mouse retina)	Optimal Copy number (HEK293T cells [2])	Dynamic range compared with similar riboswitches known in the art (HEK293T cells [1])
L2Bulge18tc: Tetracycline ON switch riboswitch, SEQ ID NO: 12 (nucleic acid) CTCGAGGCGATCGCAAACAAACAAAGCTGTCACCGGATGTGCTTTCCGGTCTGATGAGTCCGTTGTCCAAAACATACCAGATTTCGATCTGGAGAGGTGAAGAATTCGACCACCTGGACGAGGACGGAGGACGAAACAGCAAAAAGAAAAATAAAAATTAATTAATCTTGGGCCC	responded to a ligand	4.3-fold	responded to a ligand	3	–
K19: Tetracycline ON switch riboswitch, SEQ ID NO: 15 (nucleic acid) CAAACAAACAAAGGCGCGTCCTGGATTCGTGGTAAAACATACCAGATTTCGATCTGGAGAGGTGAAGAATACGACCACCTGTAGTATCCAGCTGATGAGTCCCAAATAGGACGAAACGCGCTAAACAAACAAAC	responded to a ligand	1.5-fold	responded to a ligand	1	–
GuaM8HDV: Guanine OFF switch riboswitch, SEQ ID NO: 14 (nucleic acid) ATGGCCGGCATGGTCCCAGCCTCCTCGCTGGCGCCGGCTGGGCAATGCTATAATCGCGTGGATATGGCACGCAAGTTTCTACCGGGCACCGTAAATGTCCGACTAGTAGCGAATGGGACGCACAAATCTCTCTAG	responded to a ligand	–	responded to a ligand	–	–
Theo-SLIM: theophylline-responsive self-targeting ligand inactivating microRNA (SLIM) switch, SEQ ID NO: 1 (nucleic acid) CGTATCAGCAGGTCCCATAAGCTTTCGACAATTAACGAGTGTGTACTCGTTCTATCATCTCACAGTTAAAGTCGGGAGAATAGGAGCCGCACGGGTCCTGATACCAGCGTGAGCGGAGAGAATCTTCTTTCTGTCTATTAGTGAAGCCACAGATGTAATAGACAGAAAGAAGATTCTCTCCGCCTACGCCCTTGGCAGCACCGTACGGTTCGATC	–	10.9-fold	–	1	increased dynamic range
Tet-SLIM: tetracycline-responsive self-targeting ligand inactivating microRNA (SLIM) switch, SEQ ID NO: 17 (nucleic acid) CTAGCACGGGTCCCTAAAACATACCGTGAGCGCGAAAGCGCCCCCATTTTGAGTTAGTGAAGCCACAGATGTAACTCAAAATGGGGGCGCTTTCCCGCCTACGGAGAGGTGAAGAATACGACCACCTAGAAGCTTATTGGTACATGATAACACCCCAAAATCGAAGCACTTCAAAAACACCCCAAAATCGAAGCACTTCAAAAACACCCCAAAATCGAAGCACTTCAAAAACACCCCAAAATCGAAGCACTTCAGTCTCAGGCATCGTACGATGTCGACCTGCAGG	–	2.3-fold	–	1	increased dynamic range
L2Bulge9: Theophylline-responsive riboswitch, SEQ ID NO: 11 (nucleic acid) CTCGAGGCGATCGCAAACAAACAAAGCTGTCACCGGATGTGCTTTCCGGTCTGATGAGTCCGTTGTCCAATACCAGCATCGTCTTGATGCCCTTGGCAGTGGATGGGGACGGAGGACGAAACAGCAAAAAGAAAAATAAAAATTTTTTTTTTAATTAATCTTGGGCCC	responded to a ligand	1.7-fold	responded to a ligand	3	–
Theo6HDV: Theophylline OFF switch riboswitch, SEQ ID NO: 13 (nucleic acid) ATGGCCGGCATGGTCCCAGCCTCCTCGCTGGCGCCGGCTGGGCAACCACATACCAGCCGAAAGGCCCTTGGCAGGTGGGCGAATGGGACGCACAAATCTCTCTAGCTTCCCAGAGAGAAGCGAGAGAAAAGTGGCTCTC	responded to a ligand	–	responded to a ligand	–	–
